Measurements published in publication PMC5951830, “CO2-sensitive tRNA modification associated with human mitochondrial disease” (Nature Communications, 2018).

Tests used:
purified protein [1] = substrate: Nc1ncnc2c1ncn2[C@@H]1O[C@H](COP(=O)(O)OP(=O)(O)OP(=O)(O)O)[C@@H](O)[C@H]1O; assay: purified protein; assay type: biochemical, Homo sapiens; settings: YRDC alone, Tricine-NaOH pH 8.5, 10 mM MgCl2, [14C]L-Thr, NaHCO3, 37 °C, ATP 0.1-0.8 mM
purified protein [2] = substrate: O=C(O)O; assay: purified protein; settings: YRDC alone, Tricine-NaOH pH 8.5, 10 mM MgCl2, ATP, L-Thr, 37 °C, bicarbonate 10-80 mM

B1: YRDC (Homo sapiens) (protein)
chain: SVGLSEGPAGSRSGRLFRPPSPAPAAPGARLLRLPGSGAVQAASPERAGWTEALRAAVAELRAGAVVAVPTDTLYGLACAASCSAALRAVYRLKGRSEAKPLAVCLGRVADVYRYCRVRVPEGLLKDLLPGPVTLVMERSEELNKDLNPFTPLVGIRIPDHAFMQDLAQMFEGPLALTSANLSSQASSLNVEEFQDLWPQLSLVIDGGQIGDGQSPECRLGSTVVDLSVPGKFGIIRPGCALESTTAILQQKYGLLPSHASYL
notes: recombinant from E. coli Rosetta(DE3), His6-SUMO tag removed
Km (purified protein [1]): 0.17 ± 0.22 mM | kcat (purified protein [1]): (3.9 ± 2.23) × 10^-2 s^-1 | Km (purified protein [2]): 13 mM
